Measured values taken from the supplement of paper PMC9112550, “Optimization of the antimicrobial peptide Bac7 by deep mutational scanning” (BMC Biology, 2022).

What follows are sequences tested on Escherichia coli TOP10 (assay: shrunken log2 fold change of peptide-encoding DNA abundance (4.5 h post-induction vs induction); higher = less antimicrobial activity (less host growth inhibition)). Conditions: time post-induction: 4.5 h; library: site-saturation at positions 5, 18, 19, 20.
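Also: peptides expressed intracellularly from a pBAD plasmid library in pooled LB shake-flask culture, induced with 0.3% L-arabinose, DNA abundance read by NGS, three biological replicates, DESeq2 with apeglm shrinkage.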

Row | Sequence | shrunken log2 fold change
1 | RRIRIRPPRLPRPRPRPSRTPRP | -0.455
2 | RRIRIRPPRLPRPRPRPSSDPRP | 0.0499
3 | RRIRIRPPRLPRPRPRPSTWPRP | -0.481
4 | RRIRIRPPRLPRPRPRPSVEPRP | -0.947
5 | RRIRIRPPRLPRPRPRPSWTPRP | -0.237
6 | RRIRIRPPRLPRPRPRPSYRPRP | -0.0544
7 | RRIRIRPPRLPRPRPRPTAAPRP | 0.116
8 | RRIRIRPPRLPRPRPRPTCTPRP | -0.807
9 | RRIRIRPPRLPRPRPRPTEWPRP | 0.133
10 | RRIRIRPPRLPRPRPRPTFLPRP | -0.679
11 | RRIRIRPPRLPRPRPRPTFNPRP | -0.595
12 | RRIRIRPPRLPRPRPRPTHNPRP | -0.145
13 | RRIRIRPPRLPRPRPRPTIFPRP | -0.398
14 | RRIRIRPPRLPRPRPRPTIHPRP | -0.592
15 | RRIRIRPPRLPRPRPRPTKVPRP | -0.257
16 | RRIRIRPPRLPRPRPRPTRNPRP | -0.268
17 | RRIRIRPPRLPRPRPRPTSYPRP | -0.261
18 | RRIRIRPPRLPRPRPRPTYCPRP | -0.214
19 | RRIRIRPPRLPRPRPRPVAWPRP | -0.0525
20 | RRIRIRPPRLPRPRPRPVCAPRP | -0.0399
21 | RRIRIRPPRLPRPRPRPVECPRP | 0.00902
22 | RRIRIRPPRLPRPRPRPVEFPRP | -0.0453
23 | RRIRIRPPRLPRPRPRPVELPRP | -0.0129
24 | RRIRIRPPRLPRPRPRPVFLPRP | -0.51
25 | RRIRIRPPRLPRPRPRPVHAPRP | 0.0769

Row | Sequence | shrunken log2 fold change
26 | RRIRIRPPRLPRPRPRPVHCPRP | -0.335
27 | RRIRIRPPRLPRPRPRPVIEPRP | -0.121
28 | RRIRIRPPRLPRPRPRPVKFPRP | -0.0946
29 | RRIRIRPPRLPRPRPRPVMKPRP | 0.012
30 | RRIRIRPPRLPRPRPRPVMSPRP | -0.0169
31 | RRIRIRPPRLPRPRPRPVMYPRP | -0.052
32 | RRIRIRPPRLPRPRPRPVNIPRP | -0.17
33 | RRIRIRPPRLPRPRPRPVNVPRP | -0.404
34 | RRIRIRPPRLPRPRPRPVPEPRP | -0.138
35 | RRIRIRPPRLPRPRPRPVPLPRP | -0.442
36 | RRIRIRPPRLPRPRPRPVPQPRP | 0.224
37 | RRIRIRPPRLPRPRPRPVQPPRP | 0.204
38 | RRIRIRPPRLPRPRPRPVSNPRP | -0.0661
39 | RRIRIRPPRLPRPRPRPVTFPRP | -0.00574
40 | RRIRIRPPRLPRPRPRPVTHPRP | -0.256
41 | RRIRIRPPRLPRPRPRPVVVPRP | -0.0561
42 | RRIRIRPPRLPRPRPRPVWHPRP | -0.413
43 | RRIRIRPPRLPRPRPRPVYEPRP | -0.12
44 | RRIRIRPPRLPRPRPRPWAKPRP | -0.235
45 | RRIRIRPPRLPRPRPRPWARPRP | 0.0419
46 | RRIRIRPPRLPRPRPRPWEDPRP | -0.202
47 | RRIRIRPPRLPRPRPRPWEFPRP | -0.000856
48 | RRIRIRPPRLPRPRPRPWFHPRP | -0.768
49 | RRIRIRPPRLPRPRPRPWGAPRP | 0.0191
50 | RRIRIRPPRLPRPRPRPWGDPRP | -0.38

Row | Sequence | shrunken log2 fold change
51 | RRIRIRPPRLPRPRPRPWHSPRP | -0.383
52 | RRIRIRPPRLPRPRPRPWIDPRP | 0.0218
53 | RRIRIRPPRLPRPRPRPWIKPRP | -0.0222
54 | RRIRIRPPRLPRPRPRPWKFPRP | -0.158
55 | RRIRIRPPRLPRPRPRPWLGPRP | 0.0945
56 | RRIRIRPPRLPRPRPRPWLYPRP | -0.0424
57 | RRIRIRPPRLPRPRPRPWMAPRP | -0.547
58 | RRIRIRPPRLPRPRPRPWNHPRP | 0.0112
59 | RRIRIRPPRLPRPRPRPWQYPRP | -0.0758
60 | RRIRIRPPRLPRPRPRPWSKPRP | -0.0876
61 | RRIRIRPPRLPRPRPRPWSQPRP | -0.738
62 | RRIRIRPPRLPRPRPRPWTSPRP | -0.171
63 | RRIRIRPPRLPRPRPRPWVCPRP | 0.0551
64 | RRIRIRPPRLPRPRPRPWVDPRP | 0.0772
65 | RRIRIRPPRLPRPRPRPWVGPRP | -0.248
66 | RRIRIRPPRLPRPRPRPWVYPRP | -0.341
67 | RRIRIRPPRLPRPRPRPWWNPRP | -0.0623
68 | RRIRIRPPRLPRPRPRPWWWPRP | -0.115
69 | RRIRIRPPRLPRPRPRPWWYPRP | -0.179
70 | RRIRIRPPRLPRPRPRPYARPRP | -1.22
71 | RRIRIRPPRLPRPRPRPYCLPRP | -0.259
72 | RRIRIRPPRLPRPRPRPYCSPRP | -0.0144
73 | RRIRIRPPRLPRPRPRPYDHPRP | -0.285
74 | RRIRIRPPRLPRPRPRPYDMPRP | -0.19
75 | RRIRIRPPRLPRPRPRPYEMPRP | -0.00062
